{
  "source": "patent US20020119944A1",
  "target": "neuropilin-1 on adult rat brain oligodendrocytes (rat) (UniProt Q9QWJ9)",
  "data": [
    {"substance": "Sema3A (ligand)", "values": [
      {"measurement": "branching index (BI) of oligodendrocyte process extension (% decrease of BI at 48 h)", "value": 81},
      {"measurement": "half-effect, corresponding to a BI reduction of 50%", "value": 25, "unit": "ng/mL"}
    ]}
  ]
}
